The supplement of paper PMC7877785
± gives the uncertainty stated by the source.

Assay: self-splicing fitness, log relative to wild type (ln ratio); higher = more splicing; Tetrahymena group I intron in knt gene, E. coli kanamycin selection, DiMSum; sequences stand for … in CUCUCU…GGAGGGAAAAGUUAUCAGGCAUGCACCUGGUAGCUAGUCUUUAAACCAAUAGAUUGCAUCGGUUUAAAAGGCAAGACCGUCAAAUUGCGGGAAAGGGGUCAACAGCCGUUCAGUACCAAGUCUCAGGGGAAACUUUGAGAUGGCCUUGCAAAGGGUAUGGUAAUAAGCUGACGGACAUGGUCCUAACCACGCAGCCAAGUCCUAAGUCAACAGAUCUUCUGUUGAUAUGGAUGCAGUUCACAGACUAAAUGUCGGUCGGGGAAGAUGUAUUCUUCUCAUAAGAUAUAGUCGGACCUCUCCUUAAUGGGAGCUAGCGGAUGAAGUGAUGCAACACUGGAGCCGCUGGGAACUAAUUUGUAUGCGAAAGUAUAUUGAUUAGUUUUGGAGUACUCGUGGUCG
In short: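 DiMSum derived fitness as the error-weighted combination of fold changes across replicates, kanamycin versus no kanamycin, normalised to wild type. E. coli BL21(DE3) held the library, which randomised all eight P1ex-region intron nucleotides within the knt kanamycin-resistance gene on pET-22b(+). Six replicate transformations grew overnight at 37°C or 30°C on LB agar with or without 25 μg/mL kanamycin, also containing 100 μg/mL carbenicillin, 50 μM IPTG and 0.2% rhamnose, and pooled colonies were amplicon-sequenced on an Illumina HiSeq 2500.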

Row | Sequence | self-splicing fitness (ln) (30 °C) | self-splicing fitness (ln) (37 °C)
1 | CGUAAGCAAUAUUACGCGUA | -3 ± 0.28 | -2.9 ± 0.2
2 | CGUAAGCAAUAUUACGCUGU | -2.93 ± 0.16 | -2.17 ± 0.21
3 | CGUAAGCAAUAUUACGGAAA | -3.62 ± 0.47 | -2.39 ± 0.39
4 | CGUAAGCAAUAUUACGGAUU | -3.61 ± 0.3 | -1.49 ± 0.23
5 | CGUAAGCAAUAUUACGGCGU | -2.28 ± 0.15 | -1.59 ± 0.23
6 | CGUAAGCAAUAUUACGGUAA | -3.06 ± 0.28 | -1.36 ± 0.17
7 | CGUAAGCAAUAUUACGGUCA | -2.2 ± 0.15 | -0.467 ± 0.12
8 | CGUAAGCAAUAUUACGUAGC | -4.38 ± 0.36 | -1.62 ± 0.26
9 | CGUAAGCAAUAUUACGUAUU |  | -0.991 ± 0.15
10 | CGUAAGCAAUAUUACGUCCG | -0.78 ± 0.059 | -0.649 ± 0.08
11 | CGUAAGCAAUAUUACGUCCU | -1.88 ± 0.15 | -0.604 ± 0.17
12 | CGUAAGCAAUAUUACGUCGG | -1.2 ± 0.08 | -0.133 ± 0.1
13 | CGUAAGCAAUAUUACGUCUC | -3.77 ± 0.28 | -1.95 ± 0.17
14 | CGUAAGCAAUAUUACGUGUC | -1.85 ± 0.22 | -3.01 ± 0.28
15 | CGUCAGCAAUAUUACGACCA | -0.734 ± 0.11 | -0.297 ± 0.13
16 | CGUCAGCAAUAUUACGACCC | -0.525 ± 0.18 | 0.0394 ± 0.17
17 | CGUCAGCAAUAUUACGAGCG | -3.52 ± 0.15 | -1.04 ± 0.15
18 | CGUCAGCAAUAUUACGAGGU | -3.81 ± 0.47 | -3.03 ± 0.35
19 | CGUCAGCAAUAUUACGAUGA | -0.998 ± 0.11 | 0.0314 ± 0.11
20 | CGUCAGCAAUAUUACGAUUA | -0.469 ± 0.17 | 0.0103 ± 0.13
21 | CGUCAGCAAUAUUACGAUUU | -1.01 ± 0.06 | -1.11 ± 0.061
22 | CGUCAGCAAUAUUACGCAUU | -3.62 ± 0.16 | -2.31 ± 0.16
23 | CGUCAGCAAUAUUACGCCAC |  | -1.01 ± 0.45
24 | CGUCAGCAAUAUUACGCCGC | -2.76 ± 0.32 | -1.05 ± 0.27

Row | Sequence | self-splicing fitness (ln) (30 °C) | self-splicing fitness (ln) (37 °C)
25 | CGUCAGCAAUAUUACGCUAC | -3.74 ± 0.43 | -0.956 ± 0.23
26 | CGUCAGCAAUAUUACGCUCA | -1.1 ± 0.15 | 0.0237 ± 0.12
27 | CGUCAGCAAUAUUACGCUUC | -3.46 ± 0.36 | -3.11 ± 0.31
28 | CGUCAGCAAUAUUACGCUUG | -1.03 ± 0.098 | 0.41 ± 0.12
29 | CGUCAGCAAUAUUACGGAUC | -1.12 ± 0.051 | -0.0121 ± 0.069
30 | CGUCAGCAAUAUUACGGCGA | -1.88 ± 0.17 | -1.57 ± 0.21
31 | CGUCAGCAAUAUUACGGCGG | -1.01 ± 0.082 | 0.0141 ± 0.11
32 | CGUCAGCAAUAUUACGGCUC | -1.43 ± 0.081 | 0.225 ± 0.088
33 | CGUCAGCAAUAUUACGGGCG | -3.15 ± 0.16 | -2.8 ± 0.21
34 | CGUCAGCAAUAUUACGGGUA | -1.81 ± 0.14 | -1.06 ± 0.1
35 | CGUCAGCAAUAUUACGGUAG | -0.184 ± 0.059 | 0.0634 ± 0.064
36 | CGUCAGCAAUAUUACGGUUA | -2.25 ± 0.12 | -0.874 ± 0.091
37 | CGUCAGCAAUAUUACGUGAA | -2.11 ± 0.087 | -0.281 ± 0.092
38 | CGUCAGCAAUAUUACGUUAU | -2.95 ± 0.14 | -2.83 ± 0.17
39 | CGUGAGCAAUAUUACGAAUG | -1.41 ± 0.16 | -0.913 ± 0.13
40 | CGUGAGCAAUAUUACGACUU | -2.96 ± 0.16 | -1.71 ± 0.19
41 | CGUGAGCAAUAUUACGAGAC |  | -0.958 ± 0.35
42 | CGUGAGCAAUAUUACGAGAG | -2.29 ± 0.25 | -2.64 ± 0.36
43 | CGUGAGCAAUAUUACGAGCA | -1.58 ± 0.085 | -0.55 ± 0.11
44 | CGUGAGCAAUAUUACGAGGU | -0.426 ± 0.29 | -1.35 ± 0.31
45 | CGUGAGCAAUAUUACGAUUC | -3.25 ± 0.23 | -2.58 ± 0.44
46 | CGUGAGCAAUAUUACGAUUG | -0.949 ± 0.09 | -0.662 ± 0.13
47 | CGUGAGCAAUAUUACGCAAC | -2.77 ± 0.36 | -2.18 ± 0.33
48 | CGUGAGCAAUAUUACGCCCU | -3.26 ± 0.23 | -1.98 ± 0.24
